From PMC6294707 (Molecular and cellular neurosciences, 2018) come the findings set out here.

The target of assay [1] is HA-tagged spinophilin (human, full-length) (human, UniProt Q96SB3 1-817). Nature of the assay: co-IP.
Assay [2] has as its target T1, SAP90/PSD-95 associated protein 3 (endogenous, mouse brain) (mouse (endogenous in striatum), UniProt Q6PFD5 1-977).
T1 sequence (looked up): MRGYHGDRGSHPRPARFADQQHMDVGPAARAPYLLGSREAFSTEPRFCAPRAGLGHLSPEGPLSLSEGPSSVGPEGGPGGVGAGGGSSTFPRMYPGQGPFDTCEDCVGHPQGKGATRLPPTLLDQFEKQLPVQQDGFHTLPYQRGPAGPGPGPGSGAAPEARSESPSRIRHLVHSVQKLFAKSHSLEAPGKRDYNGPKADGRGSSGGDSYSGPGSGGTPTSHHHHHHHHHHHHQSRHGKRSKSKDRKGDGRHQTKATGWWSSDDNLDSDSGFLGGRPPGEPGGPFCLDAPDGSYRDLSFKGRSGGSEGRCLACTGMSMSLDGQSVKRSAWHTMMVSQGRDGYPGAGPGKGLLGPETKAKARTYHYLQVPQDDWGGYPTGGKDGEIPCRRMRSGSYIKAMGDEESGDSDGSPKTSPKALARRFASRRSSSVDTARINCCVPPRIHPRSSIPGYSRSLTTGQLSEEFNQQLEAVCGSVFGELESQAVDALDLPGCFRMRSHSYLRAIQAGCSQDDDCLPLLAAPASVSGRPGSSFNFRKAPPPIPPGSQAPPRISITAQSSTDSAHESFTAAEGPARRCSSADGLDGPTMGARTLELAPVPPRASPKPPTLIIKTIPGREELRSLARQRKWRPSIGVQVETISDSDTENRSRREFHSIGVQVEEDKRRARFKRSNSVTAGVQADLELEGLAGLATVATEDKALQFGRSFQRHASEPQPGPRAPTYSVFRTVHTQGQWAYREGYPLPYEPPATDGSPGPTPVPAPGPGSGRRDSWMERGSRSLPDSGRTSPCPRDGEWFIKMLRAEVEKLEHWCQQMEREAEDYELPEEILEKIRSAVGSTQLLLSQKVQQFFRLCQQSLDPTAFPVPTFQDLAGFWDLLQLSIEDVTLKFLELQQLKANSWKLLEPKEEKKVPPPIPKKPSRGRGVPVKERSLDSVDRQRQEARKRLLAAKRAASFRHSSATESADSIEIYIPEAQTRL
Description: co-IP.

Chain of HA-tagged spinophilin (human, full-length) (Q96SB3 whole entry): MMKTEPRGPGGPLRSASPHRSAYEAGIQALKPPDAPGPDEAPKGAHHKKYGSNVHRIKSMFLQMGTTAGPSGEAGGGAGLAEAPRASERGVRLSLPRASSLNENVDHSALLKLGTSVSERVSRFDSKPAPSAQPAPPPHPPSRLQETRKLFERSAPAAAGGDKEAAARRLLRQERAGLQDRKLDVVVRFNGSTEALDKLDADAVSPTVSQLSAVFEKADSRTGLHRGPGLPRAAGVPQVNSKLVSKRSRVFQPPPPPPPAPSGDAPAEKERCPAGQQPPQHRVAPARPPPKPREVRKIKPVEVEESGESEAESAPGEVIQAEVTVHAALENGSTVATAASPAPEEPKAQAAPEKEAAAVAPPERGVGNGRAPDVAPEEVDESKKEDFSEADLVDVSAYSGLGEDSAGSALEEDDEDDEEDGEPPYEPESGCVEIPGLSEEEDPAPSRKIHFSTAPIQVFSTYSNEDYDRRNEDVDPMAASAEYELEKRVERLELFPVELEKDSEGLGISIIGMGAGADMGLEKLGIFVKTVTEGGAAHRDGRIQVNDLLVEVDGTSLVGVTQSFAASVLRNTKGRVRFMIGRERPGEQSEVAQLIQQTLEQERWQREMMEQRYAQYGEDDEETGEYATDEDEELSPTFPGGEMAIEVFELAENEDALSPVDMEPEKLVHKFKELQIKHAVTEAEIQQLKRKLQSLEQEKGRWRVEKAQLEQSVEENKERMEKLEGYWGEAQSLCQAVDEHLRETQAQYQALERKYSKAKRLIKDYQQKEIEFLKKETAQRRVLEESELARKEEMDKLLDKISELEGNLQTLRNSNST

B1: V5-tagged SAPAP3 (rat) (natural protein, UniProt P97838 1-977, looked up)
chain: MRGYHGDRGSHPRPARFADQQHMDVGPAARAPYLLGSREAFSTEPRFCAPRAGLGHLSPEGPLSLSEGPSSVGPEGGPGGVGAGGSSSTFPRMYPGQGPFDTCEDCVGHPQGKGATRLLPTFLDQFEKQLPVQQDGFHTLPYQRGPAGPGPGPGSGAAPEARSESPSRIRHLVHSVQKLFAKSHSLEAPGKRDYNGPKAEGRSSSGGDSYSGPGSGGPPTSHHHHHHHHHHHHQSRHGKRSKSKDRKGDGRHQTKATGWWSSDDNLDSDSGFLGGRPPGEPGGPFCLDAPDGSYRDLSFKGRSGGSEGRCLACTGMSMSLDGQSVKRSAWHTMMVSQGRDGYPGAGPGKGLLGPETKAKARTYHYLQVPQDDWGGYPTGGKDGEIPCRRMRSGSYIKAMGDEESGDSDGSPKTSPKALARRFASRRSSSVDTARINCCVPPRIHPRSSIPGYSRSLTTGQLSEEFNQQLEAVCGSVFGELESQAVDALDLPGCFRMRSHSYLRAIQAGCSQDDDCLPLLAAPASVSGRPGSSFNFRKAPPPIPPGSQAPPRISITAQSSTDSAHESFTAAEGPARRCSSADGLDGPTMGARTLELAPVPPRASPKPPTLIIKTIPGREELRSLARQRKWRPSIGVQVETISDSDTENRSRREFHSIGVQVEEDKRRARFKRSNSVTAGVQADLELEGLAGLATVATEDKALQFGRPFQRQASEPQPGPRAPTYSVFRTVHTQGQWAYREGYPLPYEPPATDGSPGPPPVPAPGPGSGRRDSWMERGSRSLPDSGRTSPCPRDGEWFIKMLRAEVEKLEHWCQQMEREAEDYELPEEILEKIRSAVGSTQLLLSQKVQQFFRLCQQSLDPTAFPVPTFQDLAGFWDLLQLSIEDVTLKFLELQQLKANSWKLLEPKEEKKVPPPIPKKPSRGRGVPVKERSLDSVDRQRQEARKRLLAAKRAASFRHSSATESADSIEIYIPEAQTRL
Take B1: in assay [1], the “fold change of association, PKCbeta overexpressed and activated over control” value was roughly 3.3 fold; the “fold change of association, mGluR5 overexpressed over control” value was roughly 12 fold.

B2: spinophilin (endogenous, mouse brain) (natural protein)
chain: not shown
As to B2, the “fold greater association, WT over SAPAP3 KO” value in assay [2] was roughly 3 fold.
